Laboratory results taken from paper PMC5384220, “Highly selective inhibition of histone demethylases by de novo macrocyclic peptides” (Nature Communications, 2017).

Tests used:
Test in all cases: cell-based or functional assay
factor inhibiting HIF = factor inhibiting HIF (UniProt Q9NWT6 1-349)
KDM2A = target: T1, KDM2A (human, UniProt Q9Y2K7 1-1162)
T1 sequence (looked up): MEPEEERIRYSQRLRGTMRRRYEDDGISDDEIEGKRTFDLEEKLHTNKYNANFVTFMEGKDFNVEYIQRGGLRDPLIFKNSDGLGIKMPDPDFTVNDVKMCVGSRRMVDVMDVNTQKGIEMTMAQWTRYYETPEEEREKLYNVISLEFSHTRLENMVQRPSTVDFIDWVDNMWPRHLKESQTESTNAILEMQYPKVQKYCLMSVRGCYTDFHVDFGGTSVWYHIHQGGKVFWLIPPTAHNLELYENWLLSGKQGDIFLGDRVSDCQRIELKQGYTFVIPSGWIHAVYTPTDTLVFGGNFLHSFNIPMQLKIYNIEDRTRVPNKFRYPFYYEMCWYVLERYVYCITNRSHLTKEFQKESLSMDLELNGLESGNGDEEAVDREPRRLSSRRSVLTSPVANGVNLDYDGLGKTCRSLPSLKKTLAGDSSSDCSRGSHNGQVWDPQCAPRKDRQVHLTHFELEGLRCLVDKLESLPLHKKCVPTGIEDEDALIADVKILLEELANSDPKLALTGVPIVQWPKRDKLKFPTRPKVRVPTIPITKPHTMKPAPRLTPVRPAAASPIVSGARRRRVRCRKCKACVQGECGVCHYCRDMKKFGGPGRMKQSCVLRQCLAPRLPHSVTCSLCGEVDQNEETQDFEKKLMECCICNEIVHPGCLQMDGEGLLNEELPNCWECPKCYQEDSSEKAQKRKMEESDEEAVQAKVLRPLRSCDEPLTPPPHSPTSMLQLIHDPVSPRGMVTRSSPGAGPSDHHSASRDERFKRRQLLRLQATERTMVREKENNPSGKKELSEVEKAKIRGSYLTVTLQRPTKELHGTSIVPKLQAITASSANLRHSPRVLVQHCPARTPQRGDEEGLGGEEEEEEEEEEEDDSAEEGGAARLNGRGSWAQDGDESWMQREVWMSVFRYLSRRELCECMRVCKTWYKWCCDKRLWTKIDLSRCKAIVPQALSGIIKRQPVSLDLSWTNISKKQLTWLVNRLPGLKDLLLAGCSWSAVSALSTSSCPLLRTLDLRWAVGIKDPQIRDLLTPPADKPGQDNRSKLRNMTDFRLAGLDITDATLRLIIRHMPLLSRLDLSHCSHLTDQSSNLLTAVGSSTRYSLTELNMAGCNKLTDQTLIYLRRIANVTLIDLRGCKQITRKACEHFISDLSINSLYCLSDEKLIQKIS

[1] = target: T2, N-terminally Hexa-His-tagged KDM4A (residues 1–359) (human, UniProt O75164 1-359)
T2 sequence (looked up): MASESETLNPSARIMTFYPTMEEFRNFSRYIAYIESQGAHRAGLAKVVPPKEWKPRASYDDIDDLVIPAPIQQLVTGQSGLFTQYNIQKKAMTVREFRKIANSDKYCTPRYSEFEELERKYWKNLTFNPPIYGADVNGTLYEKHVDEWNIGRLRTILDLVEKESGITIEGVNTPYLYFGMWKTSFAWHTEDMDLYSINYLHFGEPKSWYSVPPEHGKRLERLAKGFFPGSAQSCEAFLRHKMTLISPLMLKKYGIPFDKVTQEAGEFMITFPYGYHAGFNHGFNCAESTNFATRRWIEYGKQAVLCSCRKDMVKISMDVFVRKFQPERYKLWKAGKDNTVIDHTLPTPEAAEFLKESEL

factor inhibiting HIF, sequence (Q9NWT6 whole entry): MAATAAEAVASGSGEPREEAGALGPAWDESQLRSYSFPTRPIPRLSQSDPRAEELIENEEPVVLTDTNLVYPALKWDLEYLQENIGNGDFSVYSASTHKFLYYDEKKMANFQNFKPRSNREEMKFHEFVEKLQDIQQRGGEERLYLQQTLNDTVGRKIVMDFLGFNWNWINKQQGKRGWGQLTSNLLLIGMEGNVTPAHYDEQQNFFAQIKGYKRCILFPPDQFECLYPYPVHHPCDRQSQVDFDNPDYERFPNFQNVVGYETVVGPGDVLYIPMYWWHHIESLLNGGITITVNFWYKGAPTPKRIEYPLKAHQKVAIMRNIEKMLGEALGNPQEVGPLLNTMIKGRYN

B1: CP4 (peptide)
chain: YLKSRRSGLTWIPC
modifications: not fully specified; N-terminal L-Tyr (^LTyr library, N-chloroacetyl-L-Tyr) cyclised by a thioether to a downstream cysteine
Factor inhibiting HIF
  IC50 of inhibition of FIH (MALDI–TOF MS assay): > 1000 µM
KDM2A
  IC50 of inhibition of demethylase activity (AlphaScreen activity assay): > 10 µM
[1]
  IC50 of inhibition of demethylase activity (AlphaScreen activity assay): 0.02 µM
